Results reported in publication doi:10.1101/2025.05.23.655777v1.

B1: Asp-AT; aspartate aminotransferase 1 (recombinant) (Arabidopsis thaliana) (protein)
chain: MSSWWKSVEPAPKDPILGVTEAFLADPSPEKVNVGVGAYRDDNGKPVVLECVREAEKRLAGSTFMEYLPMGGSAKMVDLTLKLAYGDNSEFIKDKRIAAVQTLSGTGACRLFADFQKRFSPGSQIYIPVPTWSNHHNIWKDAQVPQKTYHYYHPETKGLDFSALMDDVKNAPEGSFFLLHACAHNPTGVDPTEEQWREISQLFKAKKHFAFFDMAYQGFASGDPARDAKSIRIFLEDGHHIGISQSYAKNMGLYGQRVGCLSVLCEDPKQAVAVKSQLQQLARPMYSNPPLHGAQLVSTILEDPELKSLWLKEVKVMADRIIGMRTTLRESLEKLGSPLSWEHVTKQIGMFCYSGLTPEQVDRLTSEYHIYMTRNGRISMAGVTTGNVGYLANAIHEVTKSS
B2: Ala-AT; alanine aminotransferase 1 (recombinant) (Arabidopsis thaliana) (protein)
chain: SASDSSSSLPVTLDTINPKVIKCEYAVRGEIVNIAQKLQEDLKTNKDAYPFDEIIYCNIGNPQSLGQQPITFFREVLALCSYTALLDESATHGLFSSDSIERAWKILDQIPGRATGAYSHSQGIKGLRDAIADGIEARDGFPADPNDIFMTDGASPGVHMMMQLLITSEKDGILCPIPQYPLYSASIALHGGTLVPYYLDEASGWGLEISELKKQLEDARSKGITVRALAVINPGNPTGQVLSEENQRDVVKFCKQEGLVLLADEVYQENVYVPDKKFHSFKKVARSMGYGEKDLALVSFQSVSKGYYGECGKRGGYMEVTGFTSDVREQIYKMASVNLCSNISGQILASLIMSPPKPGDDSYESYIAEKDGILSSLARRAKTLEEALNKLEGVTCNRAEGAMYLFPCLHLPQKAIAAAEAEKTAPDNFYCKRLLKATGIVVVPGSGFRQVPGTWHFRCTILPQEDKIPAIVDRLTAFHQSFMDEFRD

Columns and labels:
Test in all cases: purified protein
purified protein [1] = substrate: N[C@@H](CS)C(=O)O; conditions: fixed 2-oxoglutarate (6 mM), HEPES pH 8.0, 50 µM PLP, 30 °C
purified protein [2] = substrate: N[C@@H](CC(=O)O)C(=O)O; conditions: fixed 2-oxoglutarate (6 mM), HEPES pH 8.0, 50 µM PLP, 30 °C
purified protein [3] = substrate: O=C(O)CCC(=O)C(=O)O; conditions: HEPES pH 8.0, 50 µM PLP, 30 °C
purified protein [4] = substrate: C[C@H](N)C(=O)O; conditions: fixed 2-oxoglutarate (6 mM), HEPES pH 8.0, 50 µM PLP, 30 °C

Row | Protein | Km (purified protein [1]) [µM] | kcat (purified protein [1]) [s⁻¹] | Km (purified protein [2]) [µM] | kcat (purified protein [2]) [s⁻¹] | Km (purified protein [3]; fixed aspartate (12 mM)) [µM] | kcat (purified protein [3]; fixed aspartate (12 mM)) [s⁻¹] | Km (purified protein [3]; fixed alanine (9 mM)) [µM] | kcat (purified protein [3]; fixed alanine (9 mM)) [s⁻¹] | Km (purified protein [4]) [µM] | kcat (purified protein [4]) [s⁻¹]
1 | B1 | 15140 ± 640 | 0.81 | 3330 ± 60 | 232.26 | 460 ± 20 | 180.60 | – | – | – | –
2 | B2 | 770 ± 100 | 0.14 | – | – | – | – | 180 ± 10 | 262.91 | 2510 ± 180 | 367.69
